The Human Domainome abundance scans (Beltran et al. 2025)
± gives the uncertainty stated by the source.

B1: Transcription elongation factor A N-terminal and central domain-containing protein, residues 30 to 77; numbered along this chain, Q8N8B7 (parent)
chain: LTELETIYVTKEHLQETDVVRAVYRVLKNCPSVALKKKAKCLLSKWKA

Variants of: B1
Test: abundance fitness (aPCA) (normalised: wild type 0, dead -1); higher = more abundant; growth selection in yeast, the domain comes from the species named
Conditions: Homo sapiens

Variant	abundance fitness
LTELETIYVTKQHLQETDVVRAVYRVLKNCPSVALKKKAKCLLSKWKA	-0.278 ± 0.13
LTELETIYVTKRHLQETDVVRAVYRVLKNCPSVALKKKAKCLLSKWKA	-0.24 ± 0.079
LTELETIYVTKSHLQETDVVRAVYRVLKNCPSVALKKKAKCLLSKWKA	-0.168 ± 0.091
LTELETIYVTKTHLQETDVVRAVYRVLKNCPSVALKKKAKCLLSKWKA	-0.068 ± 0.1
LTELETIYVTKWHLQETDVVRAVYRVLKNCPSVALKKKAKCLLSKWKA	-0.71 ± 0.1
LTELETIYVTKECLQETDVVRAVYRVLKNCPSVALKKKAKCLLSKWKA	-0.224 ± 0.079
LTELETIYVTKEELQETDVVRAVYRVLKNCPSVALKKKAKCLLSKWKA	0.262 ± 0.12
LTELETIYVTKEFLQETDVVRAVYRVLKNCPSVALKKKAKCLLSKWKA	-0.428 ± 0.091
LTELETIYVTKEGLQETDVVRAVYRVLKNCPSVALKKKAKCLLSKWKA	-0.232 ± 0.072
LTELETIYVTKEILQETDVVRAVYRVLKNCPSVALKKKAKCLLSKWKA	-0.668 ± 0.099
LTELETIYVTKEKLQETDVVRAVYRVLKNCPSVALKKKAKCLLSKWKA	0.106 ± 0.083
LTELETIYVTKELLQETDVVRAVYRVLKNCPSVALKKKAKCLLSKWKA	-0.842 ± 0.078
LTELETIYVTKEMLQETDVVRAVYRVLKNCPSVALKKKAKCLLSKWKA	-0.133 ± 0.084
LTELETIYVTKENLQETDVVRAVYRVLKNCPSVALKKKAKCLLSKWKA	0.07 ± 0.078
LTELETIYVTKEQLQETDVVRAVYRVLKNCPSVALKKKAKCLLSKWKA	-0.078 ± 0.086
LTELETIYVTKERLQETDVVRAVYRVLKNCPSVALKKKAKCLLSKWKA	-0.126 ± 0.066
LTELETIYVTKESLQETDVVRAVYRVLKNCPSVALKKKAKCLLSKWKA	0.02 ± 0.063
LTELETIYVTKETLQETDVVRAVYRVLKNCPSVALKKKAKCLLSKWKA	0 ± 0.071
LTELETIYVTKEVLQETDVVRAVYRVLKNCPSVALKKKAKCLLSKWKA	-0.698 ± 0.094
LTELETIYVTKEYLQETDVVRAVYRVLKNCPSVALKKKAKCLLSKWKA	-0.479 ± 0.073
LTELETIYVTKEHAQETDVVRAVYRVLKNCPSVALKKKAKCLLSKWKA	0.241 ± 0.064
LTELETIYVTKEHCQETDVVRAVYRVLKNCPSVALKKKAKCLLSKWKA	0.061 ± 0.097
LTELETIYVTKEHDQETDVVRAVYRVLKNCPSVALKKKAKCLLSKWKA	0.184 ± 0.083
LTELETIYVTKEHEQETDVVRAVYRVLKNCPSVALKKKAKCLLSKWKA	0.336 ± 0.065
LTELETIYVTKEHGQETDVVRAVYRVLKNCPSVALKKKAKCLLSKWKA	0.252 ± 0.054
LTELETIYVTKEHHQETDVVRAVYRVLKNCPSVALKKKAKCLLSKWKA	0.294 ± 0.1
LTELETIYVTKEHKQETDVVRAVYRVLKNCPSVALKKKAKCLLSKWKA	0.23 ± 0.082

Variant	abundance fitness
LTELETIYVTKEHMQETDVVRAVYRVLKNCPSVALKKKAKCLLSKWKA	0.16 ± 0.082
LTELETIYVTKEHNQETDVVRAVYRVLKNCPSVALKKKAKCLLSKWKA	0.235 ± 0.12
LTELETIYVTKEHPQETDVVRAVYRVLKNCPSVALKKKAKCLLSKWKA	-0.049 ± 0.12
LTELETIYVTKEHQQETDVVRAVYRVLKNCPSVALKKKAKCLLSKWKA	0.247 ± 0.1
LTELETIYVTKEHRQETDVVRAVYRVLKNCPSVALKKKAKCLLSKWKA	0.21 ± 0.057
LTELETIYVTKEHSQETDVVRAVYRVLKNCPSVALKKKAKCLLSKWKA	0.296 ± 0.066
LTELETIYVTKEHTQETDVVRAVYRVLKNCPSVALKKKAKCLLSKWKA	0.328 ± 0.087
LTELETIYVTKEHVQETDVVRAVYRVLKNCPSVALKKKAKCLLSKWKA	0.172 ± 0.065
LTELETIYVTKEHWQETDVVRAVYRVLKNCPSVALKKKAKCLLSKWKA	0.094 ± 0.06
LTELETIYVTKEHYQETDVVRAVYRVLKNCPSVALKKKAKCLLSKWKA	-0.124 ± 0.18
LTELETIYVTKEHLAETDVVRAVYRVLKNCPSVALKKKAKCLLSKWKA	-0.088 ± 0.081
LTELETIYVTKEHLCETDVVRAVYRVLKNCPSVALKKKAKCLLSKWKA	-0.002 ± 0.12
LTELETIYVTKEHLDETDVVRAVYRVLKNCPSVALKKKAKCLLSKWKA	-0.27 ± 0.13
LTELETIYVTKEHLEETDVVRAVYRVLKNCPSVALKKKAKCLLSKWKA	-0.016 ± 0.1
LTELETIYVTKEHLFETDVVRAVYRVLKNCPSVALKKKAKCLLSKWKA	-0.212 ± 0.16
LTELETIYVTKEHLHETDVVRAVYRVLKNCPSVALKKKAKCLLSKWKA	-0.138 ± 0.17
LTELETIYVTKEHLIETDVVRAVYRVLKNCPSVALKKKAKCLLSKWKA	-0.46 ± 0.15
LTELETIYVTKEHLKETDVVRAVYRVLKNCPSVALKKKAKCLLSKWKA	0.209 ± 0.093
LTELETIYVTKEHLLETDVVRAVYRVLKNCPSVALKKKAKCLLSKWKA	-0.352 ± 0.084
LTELETIYVTKEHLMETDVVRAVYRVLKNCPSVALKKKAKCLLSKWKA	-0.452 ± 0.13
LTELETIYVTKEHLNETDVVRAVYRVLKNCPSVALKKKAKCLLSKWKA	-0.388 ± 0.16
LTELETIYVTKEHLPETDVVRAVYRVLKNCPSVALKKKAKCLLSKWKA	0.134 ± 0.15
LTELETIYVTKEHLRETDVVRAVYRVLKNCPSVALKKKAKCLLSKWKA	0.093 ± 0.071
LTELETIYVTKEHLSETDVVRAVYRVLKNCPSVALKKKAKCLLSKWKA	-0.208 ± 0.083
LTELETIYVTKEHLTETDVVRAVYRVLKNCPSVALKKKAKCLLSKWKA	-0.213 ± 0.12
LTELETIYVTKEHLVETDVVRAVYRVLKNCPSVALKKKAKCLLSKWKA	-0.527 ± 0.095
LTELETIYVTKEHLWETDVVRAVYRVLKNCPSVALKKKAKCLLSKWKA	0.069 ± 0.096
